This data set concerns the molecule itself. In words: SEC. A general note: Size exclusion chromatography separates by hydrodynamic size, large species first.

The values that follow come from PMC8163212 (Chemical Science, 2020).

B1: UVR8 mutant W198/250/302F (6Wd + 4Wc), on the W400F background (receptor)
chain: MAEDMAADEVTAPPRKVLIISAGASHSVALLSGDIVCSWGRGEDGQLGHGDAEDRPSPTQLSALDGHQIVSVTCGADHTVAYSQSGMEVYSWGWGDFGRLGHGNSSDLFTPLPIKALHGIRIKQIACGDSHCLAVTMEGEVQSWGRNQNGQLGLGDTEDSLVPQKIQAFEGIRIKMVAAGAEHTAAVTEDGDLYGWGFGRYGNLGLGDRTDRLVPERVTSTGGEKMSMVACGWRHTISVSYSGALYTYGFSKYGQLGHGDLEDHLIPHKLEALSNSFISQISGGWRHTMALTSDGKLYGWGFNKFGQVGVGNNLDQCSPVQVRFPDDQKVVQVSCGWRHTLAVTERNNVFAWGRGTNGQLGIGESVDRNFPKIIEALSVDGASGQHIESSNIDPSSGKSFVSPAERYAVVPDETGLTDGSSKGNGGDISVPQTDVKRVRI
B1: the binding result is reported as “binds”.
